Paper PMC11211662, “A novel alcohol dehydrogenase in the hyperthermophilic crenarchaeon Hyperthermus butylicus” (mLife, 2024)

Legend:
Test in all cases: purified protein
[1] = substrate: CCCO; format: biochemical, Hyperthermus butylicus; conditions: oxidation, 0.4 mM NADP+, 100 mM EPPS pH 9.0, 80 °C, anaerobic, pH 9.0
[2] = substrate: CCCC=O; format: biochemical, Hyperthermus butylicus; conditions: reduction, 0.2 mM NADPH, 100 mM PIPES pH 6.0, 80 °C, anaerobic, pH 6.0
[3] = substrate: CCCCO; format: biochemical, Hyperthermus butylicus; conditions: oxidation, 0.4 mM NADP+, 100 mM EPPS pH 9.0, 80 °C, anaerobic, pH 9.0
[4] = substrate: CC(C)=O; format: biochemical, Hyperthermus butylicus; conditions: reduction, 0.2 mM NADPH, 100 mM PIPES pH 6.0, 80 °C, anaerobic, pH 6.0
[5] = substrate: CCC=O; format: biochemical, Hyperthermus butylicus; conditions: reduction, 0.2 mM NADPH, 100 mM PIPES pH 6.0, 80 °C, anaerobic, pH 6.0
[6] = substrate: CC=O; format: biochemical, Hyperthermus butylicus; conditions: reduction, 0.2 mM NADPH, 100 mM PIPES pH 6.0, 80 °C, anaerobic, pH 6.0
[7] = substrate: CC(C)O; conditions: oxidation, 0.4 mM NADP+, 100 mM EPPS pH 9.0, 80 °C, anaerobic
[8] = substrate: CCO; conditions: oxidation, 0.4 mM NADP+, 100 mM EPPS pH 9.0, 80 °C, anaerobic

B1: HbADH2 (Hyperthermus butylicus DSM 5456) (protein)
chain: MLRRLQSSLRDYVRKYIVRLNCNAGGTTCKPSSTECQRFLAEPNLPQALLLAGYRLLDCTCSSGGGVSIELVGTSGDTIPARLCLDCGSIFPALTLKAQLPLSTSIPPYRGPIQEAMLKTVETIAQFCAHRKGLPLLLDTVLAEPARMCKVKLGCRPIHISSFEKADLGTVSPRIKLPTILSWITLRLRKSIEIEAPWLCVESNNGALQLVCLSETCRFEVTHCGSVRLIHGKAIALPSSTRCSPALLHLVYLYGTLYKSIDDVNVKPCIWSMTGLAILGAWYSTGENGESMMLLVWNPLKKSKLHEIVFERHRIVEAKLTSPATWLEEQLIPQYNRLRIPLPPHGARLVYVRLRKLPRLLSKNANG
notes: native protein purified anaerobically from H. butylicus cell-free extract (DEAE-Sepharose, hydroxyapatite, phenyl-Sepharose); untagged; 367 residues deduced, 40,694 Da calculated; gene assigned by mass spectrometry of the gel band, not by recombinant expression
- Km [1]: 4690 ± 410 µM
- kcat [1]: 4.4 ± 0.12 s⁻¹
- kcat/Km [1]: 938 ± 293 M⁻¹ s⁻¹
- Km [2]: 590 ± 70 µM
- kcat [2]: 8 ± 0.22 s⁻¹
- kcat/Km [2]: 13600 ± 3140 M⁻¹ s⁻¹
- Km [3]: 2440 ± 300 µM
- kcat [3]: 6.84 ± 0.24 s⁻¹
- kcat/Km [3]: 2800 ± 814 M⁻¹ s⁻¹
- Km [4]: 680 ± 40 µM
- kcat [4]: 3.84 ± 0.06 s⁻¹
- kcat/Km [4]: 8070 ± 1520 M⁻¹ s⁻¹
- Km [5]: 1550 ± 200 µM
- kcat [5]: 1.79 ± 0.07 s⁻¹
- kcat/Km [5]: 1160 ± 338 M⁻¹ s⁻¹
- Km [6]: 1270 ± 180 µM
- kcat [6]: 7 ± 0.31 s⁻¹
- kcat/Km [6]: 5510 ± 1720 M⁻¹ s⁻¹
- Km [7]: 3740 ± 460 µM
- kcat [7]: 3.47 s⁻¹
- kcat/Km [7]: 928 M⁻¹ s⁻¹
- Km [8]: 4360 ± 420 µM
- kcat [8]: 4 s⁻¹
- kcat/Km [8]: 915 M⁻¹ s⁻¹
